Our source for the EC50 values is patent US20250361296A1 (BIOCYTOGEN PHARMACEUTICALS BEIJING, published 2025).

As usually defined, the EC50 is the concentration that produces a half-maximal response. A higher EC50 goes with a need for much substance.

Assay [1] addresses T1, human SIGLEC15 on CHO-S-hSIGLEC15 cells (human, UniProt Q6ZMC9 20-328).
T1 sequence: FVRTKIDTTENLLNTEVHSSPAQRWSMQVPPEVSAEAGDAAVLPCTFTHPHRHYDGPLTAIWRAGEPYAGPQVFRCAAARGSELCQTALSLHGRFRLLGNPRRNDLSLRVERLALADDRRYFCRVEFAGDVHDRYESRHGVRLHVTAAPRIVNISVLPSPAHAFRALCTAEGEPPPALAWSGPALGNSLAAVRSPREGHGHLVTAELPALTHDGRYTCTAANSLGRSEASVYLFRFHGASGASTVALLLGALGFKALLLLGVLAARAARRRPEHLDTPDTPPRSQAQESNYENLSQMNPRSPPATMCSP
The assay can be described thus: flow cytometry (MFI) on CHO-S-hSIGLEC15 cells; antibody sample: freeze 10. As to the method: (§1) In the activity detection experiment, 30 μL of CHO-S-hSIGLEC15 cells were added to the culture plate, and the antibody to be tested was added in a gradient dilution ([…]), and incubated at 4° C. for 30 min. The plate was washed with PBS, and diluted secondary antibody Anti-hIgG-Fc-Alex Flour 647 (RL1-H) (1:2000) was added, incubated at 4° C. for 30 min. The plate was washed once with PBS and the cells were resuspended for flow cytometry detection. MFI value was derived by FlowJo 7.6.1 analysis to calculate EC50.

Assay [2] concerns the target T1, human SIGLEC15 on CHO-S-hSIGLEC15 cells. The assay can be described thus: flow cytometry (MFI) on CHO-S-hSIGLEC15 cells; antibody sample: 25° C. 7 d. As to the method:
as §1
Background: In flow cytometry, cells or beads pass a laser one at a time.

The target is the same in assay [3]. The experiment in a line: flow cytometry (MFI) on CHO-S-hSIGLEC15 cells; antibody sample: 0 d. As to the method: as §1
Assay [4] shares this target. The assay can be described thus: flow cytometry (MFI) on CHO-S-hSIGLEC15 cells; antibody sample: pH 3.5 0 h. The protocol: as §1
Assay [5] has the same target. The assay can be described thus: flow cytometry (MFI) on CHO-S-hSIGLEC15 cells; antibody sample: 4° C. 7 d. As to the method: as §1
Assay [6] shares this target. The assay can be described thus: flow cytometry (MFI) on CHO-S-hSIGLEC15 cells; antibody sample: pH 3.5 6 h. As to the method:
as §1

Assay [7] shares this target. The assay can be described thus: flow cytometry (MFI) on CHO-S-hSIGLEC15 cells; antibody sample: 40° C. 7 d. The protocol:
as §1

Assay [8] shares this target. The assay can be described thus: flow cytometry (MFI) on CHO-S-hSIGLEC15 cells; antibody sample: freeze 1. As to the method: as §1

B1: one-armed anti-SIGLEC15 antibody 10C9-S, human IgG1-N297A (antibody)
heavy: not shown
chain: DKTHTCPPCPAPELLGGPSVFLFPPKPKDTLMISRTPEVTCVVVDVSHEDPEVKFNWYVDGVEVHNAKTKPREEQYASTYRVVSVLTVLHQDWLNGKEYKCKVSNKALPAPIEKTISKAKGQPREPQVCTLPPSREEMTKNQVSLSCAVKGFYPSDIAVEWESNGQPENNYKTTPPVLDSDGSFFLVSKLTVDKSRWQQGNVFSCSVMHEALHNHYTQKSLSLSPGK
light: DIQLTQSPLSSPVTLGQPASISCRSSQSLVNSDGETFLSWLQQRPGQPPRLLIYKISNRFSGVPDRFSGSGAGTDFTLKISRVEAEDVGVYYCMQATQFPHTFGQGTKLEIKRTVAAPSVFIFPPSDEQLKSGTASVVCLLNNFYPREAKVQWKVDNALQSGNSQESVTEQDSKDSTYSLSSTLTLSKADYEKHKVYACEVTHQGLSSPVTKSFNRGEC
notes: One-armed format; It has a full-length heavy chain with the knob (T366W), a single Fc fragment with the hole mutations (T366S, L368A, Y407V), and a full-length light chain
Regarding B1, the EC50 in assay [1] was determined as 1.67 µg/mL; in assay [2], 1.64 µg/mL; in assay [3], 1.79 µg/mL; in assay [4], 1.66 µg/mL; in assay [5], 1.63 µg/mL; in assay [6], 2.05 µg/mL. The EC50 came out at 1.55 µg/mL in assay [7] and 1.46 µg/mL in assay [8].
